According to patent US20020094951A1, “DENTAL REMEDIES CONTAINING PTH” (priority 1997, published 2002):

B1: human PTH (1-84) (protein, UniProt P01270 32-115, looked up)
Parathyroid hormone: SVSEIQLMHNLGKHLNSMERVEWLRKKLQDVHNFVALGAPLAPRDAGSQRPRKKEDNVLVESHEKSLGEADKADVNVLTKAKSQ
modifications: Parathyroid hormone
notes: human parathyroid hormone consisting of 84 amino acid residues

Tests used:
[1] = test system: ovariectomized (OVX) female SD rats; test: Bone density by DXA in ovariectomized (OVX) rats after hormone administration (Example 1); assay type: in vivo, rat; conditions: for bone density of the ramal portion / bone density of the femur / bone density of the lumbar vertebrae: four times a week for 10 weeks; for bone density of the ramal portion: FIG. 2; for bone density of the femur / bone density of the lumbar vertebrae: DXA
Procedure: Forty female SD rats were used. At the age of 20 weeks after birth, 35 of the animals were subjected to OVX (ovariectomy) and the remaining five were subjected to Sham operation. Starting at the age of 30 weeks when bone resorption progressed fully, animals of the OVX group were subcutaneously administered with hormones for 10 weeks on a four-times-a-week basis. Five of the group administered with human PTH (1-84) were administered a dose of 10 μg/kg body weight, another five a dose of 40 μg/kg body weight and the last five a dose of 150 μg/kg body weight. The group administered with 17β-estradiol as estrogen consisted of 5 rats, which were administered a dose of […] body weight. Ten rats were administered with both hormones, 17β-estradiol at a dose of 10 μg/kg body weight and human PTH (1-84) at different doses of 10 μg/kg body weight (in 5 rats) and 150 μg/kg body weight (in the other five). After the hormone administration and at the age of 40 weeks after birth, the mandibular bone, femur and lumbar vertebrae were extracted and measured for bone density and bone mineral content by DXA (Aloca). Measurement on the mandibular bone was conduced at two sites, the alveolar bone portion including the posterior teeth and the ramal portion.

[2] = test system: ovariectomized female SD rats with tooth removal; test: Bone density and bone mineral content by DXA in OVX rats with upper jaw posterior teeth extracted (Example 2); assay type: in vivo, rat; conditions: 150 μg/kg body weight s.c., four times a week for 10 weeks
Description: Twenty-three female SD rats (body weight; 230-250 g) were used. At the age of 20 weeks after birth, 15 of the animals were subjected to OVX (ovariectomy) and the remaining eight were subjected to Sham operation. Then, at the age of 22 weeks after birth, ten of the ovariectomized rats and four in the Sham operation group had the posterior teeth in the upper jaw extracted. Starting at the age of 30 weeks when bone resorption progressed fully, five of the ovariectomized rats that had the posterior teeth in the upper jaw extracted were subcutaneously administered with human PTH (1-84) at a dose of 150 μg/kg body weight for 10 weeks on a four-time-a-week basis. After the administration of human PTH (1-84) and at the age of 40 weeks after birth, the whole mandibular bone was extracted and the bone densities and bone mineral contents in the whole mandibular bone and the mandibular molar portion were measured by DXA (Aloca).

[3] = OVX rats, 10, 40, 150 μg/kg body weight s.c.
[4] = OVX rats, dose of 150 μg/kg body weight s.c.

Molecule	bone density of the ramal portion ([1]; OVX rats, s.c.)	bone density of the mandibular alveolar bone portion ([1]; OVX rats, 150 μg/kg body weight human PTH (1-84) alone, s.c., 10 weeks, FIG. 1)	bone density of the femur [1, 3]	bone density of the lumbar vertebrae [1, 3]	bone density of the femur [1, 4]	bone density of the lumbar vertebrae [1, 4]	bone density in the mandibular bone (summary) ([1]; ovariectomized aged female rats, summary statement)	bone mineral content of whole mandibular bone ([2]; FIG. 3)	bone mineral content of the mandibular molar portion ([2]; FIG. 4)
C[C@]12CC[C@@H]3c4ccc(O)cc4CC[C@H]3[C@@H]1CC[C@@H]2O [17β-estradiol, estra-1,3,5(10)-trien-3,17β-diol, reference compound]	did not recover								
B1	did not recover	significant increases over the OVX group and returned to the level for the Sham operation group	increased in a dose-dependent manner	increased in a dose-dependent manner	almost recovered to the level for the Sham operation group	almost recovered to the level for the Sham operation group	a distinct improvement in bone density	increased noticeably	increased noticeably
